Where only a bound is given, the exact number is not on record here.

For this test, the target named is SpyTag-AP205 recombinant protein (self-assembled AP205 nanoparticles) (bacteriophage AP205). The test is described as follows: SDS-PAGE of covalent coupling; purified ST-AP205 and CTD-SC mixed at designated molar ratios, left overnight at 4°C; covalent SpyTag-SpyCatcher coupling read by SDS-PAGE.

As to “PDCoV S1-CTD-SpyCatcher recombinant protein”, the rate of formation of CTDnps (ST-AP205:CTD-SC molar ratio 4:10) is above 80%.

For the origin of these results see PMC12459236.
